Assay results from patent US20170260241A1 (KEMYTH BIOTECH, published 2017).

B1: C70PLY4 (C-terminal 70 amino acid fragment of pneumolysin, 402-471 amino acid residues) (peptide)
peptide: QDLTAHFTTSIPLKGNVRNLSVKIRECTGLAWEWWRTVYEKTDLPLVRKRTISIWGTTLYPQVEDKVEND

Tests used:
[1] = target: T1, recombinant TLR4 protein; assay: competition ELISA: TLR4 coated (2 µg/mL), MD2 (50 nM) mixed with titrated peptide, residual bound MD2 detected with anti-MD2 and anti-mouse IgG-HRP, OD450; competed ligand: MD2
T1 construct: also called Toll-like receptor 4

[2] = target: T1, recombinant TLR4 protein; assay: competition ELISA: peptide titrated from 50 µM to 3.05 nM against MD2 (50 nM) on plate-coated TLR4; competitor MD2

Row | Binder | IC50 (read off the curve) [1] | Ki [2]
1 | B1 | ~300 nM | 0.0748 µM
2 | QDLTAHFTTSIPLKGNVRNLSVKIRECTGLAWEWW [N35PLY4 (N-terminal 35 amino acid fragment of C70PLY4, 402-436 amino acid residues)] |  | 11.2 µM
